Source: US20110143428A1 (Genentech, published 2011)

Molecular target: T1, hVEGF-C (human, UniProt P49767)
T1 construct: unlabelled; also called human VEGF-C
T1 sequence (VEGF-C, looked up): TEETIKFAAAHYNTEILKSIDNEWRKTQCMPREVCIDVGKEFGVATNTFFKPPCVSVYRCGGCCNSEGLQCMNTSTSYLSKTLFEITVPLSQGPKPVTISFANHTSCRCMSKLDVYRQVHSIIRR
Assay: phage competition ELISA: phage-displayed clone incubated with increasing soluble hVEGF-C, unbound phage captured on hVEGF-C coated plate, anti-M13-HRP, OD450

B1: VC1.1 (antibody, V domains shown)
VH: EVQLVESGGGLVQPGGSLRLSCAASGFTFSDSDIHWVRQAPGKGLEWVAWISPYSGYTDYADSVKGRFTISADTSKNTAYLQMNSLRAEDTAVYYCARLFKVIFDYWGQGTLVTVSS
VL: DIQMTQSPSSLSASVGDRVTITCRASQDVSTAVAWYQQKPGKAPKLLIYSASFLYSGVPSRFSGSGSGTDFTLTISSLQPEDFATYYCQQSYTTPPTFGQGTKVEIK
notes: also called clone VC1.1
  IC50: 41.5 nM
